Results published in patent US20020132769A1.

Molecular target: fiber on the vector capsid of the adenoviral vector Av3GFP (adenovirus, serotype not stated)
Assay: cell-based or functional assay

trimerized sCAR (sCAR followed by a glycine/serine linker, the isoleucine variant GCN4 trimerization domain, and a 6 His Tag; plasmid pGStriCARb) (receptor)
% GFP Positive HepG2 cells, Av3GFP + 5 µg trimeric sCAR (Av3GFP alone: 98): 43% | % GFP Positive HepG2 cells, Av3GFP + 10 µg trimeric sCAR (Av3GFP alone: 98): 32% | % GFP Positive HepG2 cells, Av3GFP + 20 µg trimeric sCAR (Av3GFP alone: 98): 32%
